Measurements reported in the DeepSol protein solubility set.

test: soluble on expression in E. coli; label from the status in PepcDB or PDB records

Row | Sequence | soluble on expression in E. coli
1 | YAGLSRFTLSYHNVEYKLFGYGTILNNTNFPGGSSGSAVFNKEKQLTSIYFGSLINVTTGNNRNVNLGLGQILRTYNTNNSKHS | not soluble
2 | YASQSAGKEYYKHIEKIIVDNDVYEKSLEGERTFDINYQGIKINADLIKDGKHELTIVNKKDGDILITFIKKG | not soluble
3 | YCTLADLQLAIPQATLTQLTNDVPADYSVAQEPNLAVVEEAVRQAEELVDAHLRGRYVLPLVTVPSVIKDNTVNLARHWLYARRPEGNELPDAVTRTYKAALQILESIRDGKLHIGVPTGEAAPEPGEVRVRARRQLFSASM | not soluble
4 | YEGGWTQDKQWEREMNIAQEKYGPIFAKYAAMPIEEVAKDEHAMKMGSRMFATYCSICHGSDAKGALGFPNLADNEWRWGGDPQSIETTILGGRHAIMAAWGDILGEDGVKNVAAYVRTELAGLKLPEGTKADVEAGKQIFSVNCVACHGPEGKGTALVGAPNLTNPGAFIYGSSYAQLQQTIRHGRQGQMPAQEPYLGKEKVHILAAYI | not soluble
5 | YIDILNQARDYVYIMTPYLILDSEMEHALQFAAERGVDVKIIMPGIPDKKVPFALAKRYFPALLDAGVKIYEFTPGFVHAKVFIADDIKAVVGTINLDYRSLYHHFECATYMYQTDCLVDIKADFKETLKQSRRVTRSTLQKEKISTKLIGLVVKLVAPLL | not soluble
6 | YIGSQDTPYTGGLINTFSYKNWELTANLSFNLGGYVRTTPSYNFINFDRGQNVNSDILDRWTPENTDGRLPALITSEKRADEYYWYDQKSEIYKNLDIWVKKLNYFRLQNLRLGYRLPEKMTKSLGMGSASVAIEGRNLLVFGSSYKNFLDPESMYNPYAPPIPKSITFSLNLNF | not soluble
7 | YNSGKLEEFVQGNLERECMEEKCSFEEAREVFENTERTTEFWKQYEEEEEE | soluble
